Patent publication US9061070B2, “Treating stroke and other diseases without inhibiting N-type calcium channels” (NoNO, Inc., priority 2007, dated 2015)

Target: T1, chemokine CXCR2 (IL-8Rb) (Homo sapiens, UniProt P25025)
T1 sequence (P25025 1-360): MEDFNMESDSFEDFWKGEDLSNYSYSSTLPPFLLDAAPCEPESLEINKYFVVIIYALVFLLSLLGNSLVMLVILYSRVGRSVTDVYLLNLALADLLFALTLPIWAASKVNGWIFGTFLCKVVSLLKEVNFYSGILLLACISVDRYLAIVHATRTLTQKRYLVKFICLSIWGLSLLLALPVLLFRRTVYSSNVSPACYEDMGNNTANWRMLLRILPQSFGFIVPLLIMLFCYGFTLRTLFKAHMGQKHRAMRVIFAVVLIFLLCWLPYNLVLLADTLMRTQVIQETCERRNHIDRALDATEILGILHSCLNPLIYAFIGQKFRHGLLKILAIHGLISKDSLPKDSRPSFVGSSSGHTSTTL
Experiment: Competitive radioligand binding screen, IL-8/IL-8RB
Conditions: 10 μM peptide

YGRKKRRQRRRKLSSIESDV [Tat-NR2B9c, reference compound]
inhibition of IL-8/IL-8RB: 80%
